# Results: US20040072255
# Legend:
# [1] = test system: rat fast skeletal troponin I, alpha or monophosphorylated form
# [2] = test system: rat fast skeletal troponin I, beta or diphosphorylated form
# Sequence of rat fast skeletal troponin I, beta or diphosphorylated form (chain, as listed by the source): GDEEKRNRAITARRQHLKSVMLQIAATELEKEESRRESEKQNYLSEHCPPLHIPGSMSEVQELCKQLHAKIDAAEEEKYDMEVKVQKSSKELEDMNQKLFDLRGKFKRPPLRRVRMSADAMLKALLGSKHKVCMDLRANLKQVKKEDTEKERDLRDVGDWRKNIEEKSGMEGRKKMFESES
# Sequence of rat fast skeletal troponin I, alpha or monophosphorylated form (chain, as listed by the source): as above
substance,measurement,setting,value
Protein phosphatase-1 (Sigma),dephosphorylation of myofibrils prior to 2-dimensional SDS-PAGE,[1],Neither form was evident in samples after dephosphorylation with PP-I
same,dephosphorylation of myofibrils prior to 2-dimensional SDS-PAGE,[2],Neither form was evident in samples after dephosphorylation with PP-I
